Measured values: patent publication US4415667A, “Carboxypeptidase a gamma and process for preparing same” (Eisai Co., Ltd., priority 1981, dated 1983)

Substrate: O=C(CNC(=O)OCc1ccccc1)N[C@@H](Cc1ccccc1)C(=O)O
Assay: Michaelis constant and maximum reaction velocity, hydrolysis of Nα-carbobenzoxyglycyl-L-phenylalanine (ninhydrin method)
Type: biochemical, porcine
Conditions: other: substrate concentration varied from 0.02 to 0.1 M; 25.0 °C
Procedure: The enzyme activity of the enzyme of the invention for Nα-carbobenzoxyglycyl-L-phenylalanine substrate was investigated by the ninhydrin method. […] After the combined solutions stood at 25° C. for 5 minutes, 0.2 ml of an enzyme solution was added, and the solution was incubated at 25° C. for 15 minutes. The reaction was stopped by adding 1 ml of a 3 M acetate buffer solution (pH 5.0) in an ice bath. The ninhydrin reagent was added to effect color development according to the Yemn & Cocking method. The enzyme activity for a casein substrate was investigated by the Kunitz method. Enzyme activities of the enzyme of the invention for benzoylglycyl-L-arginine and elastin were also investigated by the respective methods above. Enzyme activity was observed only for Nα-carbobenzoxyglycyl-L-phenylalanine and casein.
(9) Michaelis constant and maximum reaction velocity

B1: porcine pancreas carboxypeptidase Aγ (new species, obtained in Example 1; NH2-terminal sequence beginning with Asn) (Sus scrofa) (protein)
chain: NYATYHTLEEIYDFMDILVAEHPQLVSKLQIGSSYEGRPIYVLKFSTGGNNRPAIWIDTGIHSREWVTQASGVWFAKKITEDYGQDPAFTAILDNLDIFLEIVTNPDGFAFTHSENRMWRKTRSRTSGSFCVGVDPNRNWDAGFGGAGASSNPCSETYHGKFPNSEVEVKSIVDFVNDHGNIKAFISIHSYSQLLLYPYGYKTEAPADKDELDQISKSAVAALTSLYGTKFQYGSIITTIYQASGGTIDWTYNQGIKYSFSFELRDTGRYGFLLPASQIIPTAQETWLALLTIMEHTLNHPY
notes: from tissue; host or cells: porcine pancreas (from the unit heads)
In the case of B1, the Km is reported as 20 mM and the Vmax is reported as 235.5 µmol/min/mg.
